Test results reported in patent publication US9937265B2, “Self-assembling peptide and polysaccharide complexes” (University of Leeds, priority 2013, dated 2018).

Columns and labels:
Assay type in all cases: physicochemical
[1] = Visual observation of gelation of peptide and peptide:GAG samples (systematic mixing study); details: for Gel appearance: 20 mg/ml (Table 3); for Time to gel 20 mg/ml / self-assembly and gelation / time to form a self-supporting gel (gelation time) / Gel lifetime 20 mg/ml: 20 mg/ml peptide; for c*gel: peptide alone
Experimental: Preparation of Peptide Solutions
Solutions of peptides were prepared directly in either D2O or H2O containing either 130 or 200 mM NaCl or PBS. Peptide concentrations in the millimolar range given for the NMR studies were values multiplied by an appropriate factor to account for the actual percentage peptide content. The samples were vortexed for 20 seconds, and then sonicated for 15 minutes. Solution pD was measured and adjusted to either 7.4 or 6.0±0.5 using a calibrated pH meter and the relation pD =pH meter reading +0.417. Any adjustment of pD, if necessary, was made with minimal μL volumes of either HCl or DCl and/or either NaOH or NaOD. Finally, solution vials were closed, sealed with PTFE tape, and then warmed to approximately 80° C. to maximise peptide solubility. Solutions were left to equilibrate at room temperature.
Preparation of Peptide:Glycosaminoglycan Gels.
The concentration of peptide was kept constant for each sample (20 mg/ml) and the molar ratio of GAG subunit to one peptide was increased. The samples were named by the number of GAG subunits to each peptide present e.g. P11-12:GAG 1:10=one P11-12 peptide monomer to ten GAG dimer subunits. GAG was added to peptide solutions after preparation as stated above. The mixtures were vortexed as heated again to ensure complete mixing.
The effects of mixing chondroitin sulphate GAG with the peptides were investigated. It was hypothesised that the charged GAG chains would interact electrostatically with the charged peptides. To establish whether such an interaction was possible, visual observations of a systematic mixing study was carried out and the morphology of the aggregates formed during mixing studied using TEM. • P11-4: […]

[2] = High resolution 1H-NMR study of peptide self-assembly as a function of concentration and time (c*); details: for c*: critical concentration for aggregation, physiological-like solution, with GAG estimated from monomer level at ~5000 μM total peptide
Experimental: High Resolution ^1H-NMR Study of Peptide Self-Assembly as a Function of Concentration
(2,2,3,3-d4)-trimethylsilyl-3-propionic acid (TMSP, chemical shift 0 ppm) an internal reference standard was added to all peptide solutions. NMR data were acquired at room temperature. A pre-saturation program was used to minimize the water peak, and 1024 scans were measured per spectrum. Sample spectra were recorded at various time-points after preparation to ensure the solutions had reached stable equilibrium. The aromatic multiplet at chemical shift 6.9-7.8 ppm was integrated, relative to the reference peak.
High resolution solution ^1H NMR was used to follow the self-assembly of the peptides in physiological-like solutions as a function of time. To measure self-assembly, the line width broadening of the NMR spectra is exploited. The population of peptide in an aggregated state gives rise to spectra that are so broad that they are lost in the baseline; in contrast, the population of peptide in monomeric state gives rise to high resolution spectra. By integrating the splitting pattern arising from the aromatic region and normalising it with respect to the peak observed due to a known standard, the fraction of monomer can be estimated.

[3] = Rheological study of peptide and peptide:glycosaminoglycan gels (amplitude and frequency sweeps); details: for G′ at 2 Hz 20 mg/ml / G″ at 2 Hz 20 mg/ml: 2 Hz (walking frequency); for G′ at 2 Hz 20 mg/ml / G″ at 2 Hz 20 mg/ml / plateau elastic modulus G′N°: 25° C.; for J, lower limit of the distance between nearest cross links: calculated from plateau elastic modulus by rubber-like elasticity theory, T=298K; for plateau elastic modulus G′N° / Phase angle: peptide gels in PBS at 20 mg/ml; for Phase angle: 25° C. (Table 2)
Experimental: Rheological Study of Peptide:Glycosaminoglycan Gels
Measurements were performed using a cone-plate geometry (cone angle: 1°, diameter: 50 mm, gap: 0.033 mm). All the tests were performed at 25° C., utilizing a solvent trap and the atmosphere within was kept saturated to minimize evaporation of the peptide samples. To ensure the measurements were made in the linear viscoelastic regime (LVER), amplitude sweeps were performed in a shear strain controlled mode from 0.01-100%. Two amplitude sweeps were carried out for each sample (1 Hz and 20 Hz) and a strain level was chosen at which the elastic modulus (G′) and viscous modulus (G″) were independent of strain amplitude at the two different frequency levels. The dynamic moduli of the hydrogels were measured as a frequency function with the sweeps carried out between 1 and 20 Hz. Samples were allowed to equilibrate for 15 minutes once loaded prior to the start of testing. Fresh samples were used for the amplitude and frequency sweeps. After the frequency sweeps, two more amplitude weeps (1 Hz and 20 Hz) were carried out in a stress controlled mode to confirm the testing was performed within the LVER. The stress range was chosen based on the stress values from the frequency sweeps at 1 and 20 Hz: if these two values were then independent of stress amplitude, then this confirmed that testing was within the LVER.
Tests were conducted to provide a peptide gel of similar stiffness to that of the nucleus pulposus. Rheometry was carried out on the peptide gels in PBS at 20 mg/ml. Amplitude sweeps were first carried out to determine the LVER region.
The rheological properties of the peptide:GAG samples were examined and compared to the rheological properties of peptides alone to establish how the addition of GAG affected the material properties of the gels. The frequency sweeps from the study (data not shown) for the various peptide:GAG combinations can be summarized as follows: P11-4: GAG and viscous modulus vs. frequency, starting frequency 1 Hz, end frequency: 20 Hz, strain controlled: 0.15% (control), 0.175% (1:2) and 0.04% (1:10). Temp: 25° C. 20 days old. P11-8:GAG elastic and viscous modulus vs. frequency, starting frequency 1 Hz, end frequency: 20 Hz, Strain controlled: 0.1% (1:2 and 1:10), Temp: 25° C., 1.5 months old. P11-9:GAG elastic and viscous modulus vs. frequency, starting frequency 1 Hz, end frequency: 20 Hz, Strain controlled: 0.5%, Temp: 25° C. P11-12:GAG Elastic and viscous modulus vs. frequency, starting frequency 1 Hz, end frequency: 20 Hz, Strain controlled: 0.25% (1:0.5), 0.1% (1:2), 0.05% (1:10), 0.15% (1:100), Temp: 25° C. 1:0.5, 1:2 and 1:10 2 months old and 1:100 6 days old. • P11-4: […]

[4] = Peptide dissolution from gel into supernatant (UV spectroscopy, 279 nm); details: at 3-4 days, 20 mg/ml gel
Experimental: 2.5 ml of 130 mM NaCl, D2O, pD 7.4 supernatant was added on top of the SAP:GAG gels. The concentration of peptide dissolved into the supernatant as a function of time was determined via UV spectroscopy. The UV wavelength of 279 nm corresponds to the […] of the tryptophan residue, found in position 6 of the SAP, and so this can be used to determine the molar concentration of the peptide taking into account the molar extinction coefficient of the tryptophan residue.

CH3CO-O-Q-O-F-O-W-O-F-O-Q-O-NH2 [Peptide P11-28]
Gel appearance [1]: Clear liquid
Time to gel 20 mg/ml [1]: never
self-assembly and gelation [1]: does not self-assemble
c* [2]: >3100 µM

CH3CO-Q-Q-O-F-O-W-O-F-O-Q-Q-NH2 (QQXFXWXFXQQ; HELM PEPTIDE1{[ac].Q.Q.[Orn].F.[Orn].W.[Orn].F.[Orn].Q.Q.[am]}$$$$V2.0; SMILES CC(=O)N[C@@H](CCC(N)=O)C(=O)N[C@@H](CCC(N)=O)C(=O)N[C@@H](CCCN)C(=O)N[C@@H](Cc1ccccc1)C(=O)N[C@@H](CCCN)C(=O)N[C@@H](Cc1c[nH]c2ccccc12)C(=O)N[C@@H](CCCN)C(=O)N[C@@H](Cc1ccccc1)C(=O)N[C@@H](CCCN)C(=O)N[C@@H](CCC(N)=O)C(=O)N[C@@H](CCC(N)=O)C(N)=O) [Peptide P11-14]
Gel appearance [1]: Clear liquid
Time to gel 20 mg/ml [1]: never
self-assembly and gelation [1]: does not self-assemble
c* [2]: >3600 µM

CH3CO-Q-Q-R-F-E-W-E-F-E-Q-Q-NH2 (Ac-QQRFEWEFEQQ-NH2) [Peptide P11-4]
Gel appearance [1]: Slightly cloudy
Time to gel 20 mg/ml [1]: mins-hours
time to form a self-supporting gel (gelation time) [1]: hours
Gel lifetime 20 mg/ml ([1]; unit in cell beside): >1 mth
c*gel [1]: 2000 ± 600 µM
G′ at 2 Hz 20 mg/ml [3]: 1,065 Pa
G″ at 2 Hz 20 mg/ml [3]: 205 Pa
c* [2]: 310 ± 140 µM

CH3CO-Q-Q-R-F-O-W-O-F-E-Q-Q-NH2 (QQRFXWXFEQQ; HELM PEPTIDE1{[ac].Q.Q.R.F.[Orn].W.[Orn].F.E.Q.Q.[am]}$$$$V2.0; SMILES CC(=O)N[C@@H](CCC(N)=O)C(=O)N[C@@H](CCC(N)=O)C(=O)N[C@@H](CCCNC(=N)N)C(=O)N[C@@H](Cc1ccccc1)C(=O)N[C@@H](CCCN)C(=O)N[C@@H](Cc1c[nH]c2ccccc12)C(=O)N[C@@H](CCCN)C(=O)N[C@@H](Cc1ccccc1)C(=O)N[C@@H](CCC(=O)O)C(=O)N[C@@H](CCC(N)=O)C(=O)N[C@@H](CCC(N)=O)C(N)=O) [Peptide P11-8]
Gel appearance [1]: Inhomogenous
Time to gel 20 mg/ml [1]: days
time to form a self-supporting gel (gelation time) [1]: days
Gel lifetime 20 mg/ml ([1]; yr and mths or words printed in the cell): Still some self-
c*gel [1]: 2000 ± 600 µM
G′ at 2 Hz 20 mg/ml [3]: 4,881 Pa
G″ at 2 Hz 20 mg/ml [3]: 552 Pa
J, lower limit of the distance between nearest cross links [3]: 11.6 nm
plateau elastic modulus G′N° [3]: 5,221 kg m^−1s^−2
Phase angle [3]: ~8°
c* [2]: 400 ± 100 µM

CH3CO-S-S-R-F-E-W-E-F-E-S-S-NH2 (Ac-SSRFEWEFESS-NH2) [Peptide P11-9]
Gel appearance [1]: Clear self-
Time to gel 20 mg/ml [1]: minutes
time to form a self-supporting gel (gelation time) [1]: minutes
gel state on storage ([1]; after a year): still a self-supporting gel
c*gel [1]: 4500 ± 1500 µM
G′ at 2 Hz 20 mg/ml [3]: 8 Pa
G″ at 2 Hz 20 mg/ml [3]: 5 Pa
c* [2]: 1160 ± 175 µM

CH3CO-S-S-R-F-O-W-O-F-E-S-S-NH2 (SSRFXWXFESS; HELM PEPTIDE1{[ac].S.S.R.F.[Orn].W.[Orn].F.E.S.S.[am]}$$$$V2.0; SMILES CC(=O)N[C@@H](CO)C(=O)N[C@@H](CO)C(=O)N[C@@H](CCCNC(=N)N)C(=O)N[C@@H](Cc1ccccc1)C(=O)N[C@@H](CCCN)C(=O)N[C@@H](Cc1c[nH]c2ccccc12)C(=O)N[C@@H](CCCN)C(=O)N[C@@H](Cc1ccccc1)C(=O)N[C@@H](CCC(=O)O)C(=O)N[C@@H](CO)C(=O)N[C@@H](CO)C(N)=O) [Peptide P11-12]
Gel appearance [1]: Cloudy self-
Time to gel 20 mg/ml [1]: minutes
time to form a self-supporting gel (gelation time) [1]: minutes
c*gel [1]: 2300 ± 750 µM
G′ at 2 Hz 20 mg/ml [3]: 20,510 Pa
G″ at 2 Hz 20 mg/ml [3]: 3067 Pa
J, lower limit of the distance between nearest cross links [3]: 7.2 nm
gel stiffness / moduli compared, in words ([3]; frequency sweeps, compared with peptide alone or other gels): forms the stiffest gel
plateau elastic modulus G′N° [3]: 22,285 kg m^−1s^−2
Phase angle [3]: ~9°
peptide dissolved from the gel [4]: 39.9±9.15%
time to reach equilibrium state of self-assembly ([2]; 1H NMR aromatic integral vs time, without GAG): around 1 month
c* [2]: 2300 ± 750 µM
